# Assay results taken from article PMC10702826 (EMBO Reports, 2023).
# Where no end group is shown, it is not given here.
# T1: UFC1 K47E (UniProt Q9Y3C8 1-167, K47E)
# T1 sequence: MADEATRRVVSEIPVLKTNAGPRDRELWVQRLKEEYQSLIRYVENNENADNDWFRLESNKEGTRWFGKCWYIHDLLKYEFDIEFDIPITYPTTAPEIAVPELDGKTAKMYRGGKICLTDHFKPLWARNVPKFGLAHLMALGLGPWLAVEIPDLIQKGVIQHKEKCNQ
# T2: UFC1 (E2), wild type, uncharged (UniProt Q9Y3C8 1-167)
# T2 sequence: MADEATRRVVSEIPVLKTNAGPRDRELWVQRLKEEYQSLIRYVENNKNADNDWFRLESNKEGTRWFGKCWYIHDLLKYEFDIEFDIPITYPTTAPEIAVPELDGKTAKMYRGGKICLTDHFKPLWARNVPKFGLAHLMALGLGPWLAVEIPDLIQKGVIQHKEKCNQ
# Tests used:
# [1] = molecular target: charged UFC1 (UFC1~UFM1): isopeptide‐linked UFC1 T106S/C116K ‐ Strep‐tagged UFM1 covalent complex (UniProt Q9Y3C8); test: ITC
# [2] = molecular target: T1, UFC1 K47E; test: ITC
# [3] = molecular target: T2, UFC1 (E2), wild type, uncharged; test: ITC
# [4] = molecular target: T2, UFC1 (E2), wild type, uncharged; test: NMR titration
molecule,measurement,setting,value
DDRGK1ext‐UFL1 extended fusion protein (DDRGK1 87–314 ‐ UFL1 1–200) (from UniProt Q96HY6 87-314; O94874 1-200),Kd,[1],0.23 µM
DDRGK1‐UFL1 fusion protein (DDRGK1 207–314 ‐ UFL1 1–200) (from UniProt Q96HY6;O94874),Kd,[1],2.57 µM
DDRGK1‐UFL1 fusion protein (DDRGK1 207–314 ‐ UFL1 1–200) (other) MTEEQSQSFLTEFINYIKQSKVVLLEDLASQVGLRTQDTINRIQDLLAEGTITGVIDDRGKFIYITPEELAAVANFIRQRGRVSIAELAQASNSLIAWGRESPAQAPAMADAWEEIRRLAADFQRAQFAEATQRLSERNCIEIVNKLIAQKQLEVVHTLDGKEYITPAQISKEMRDELHVRGGRVNIVDLQQVINVDLIHIENRIGDIIKSEKHVQLVLGQLIDENYLDRLAEEVNDKLQESGQVTISELCKTYDLPGNFLTQALTQRLGRIISGHIDLDNRGVIFTEAFVARHKARIRGLFSAITRP,Kd,[2],33.8 µM
same,Kd,[3],2.3 µM
"UBA5 C‐terminus (UBA5 347–404) (domain or fragment, also: uniformly 15N-labelled) SEVSEEELKNFSGPVPDLPEGITVAYTIPKKQEDSVTELTVEDSGESLEDLMAKMKNM",binding result,[4],binds
